Reference: patent publication US20040019187A1 (published 2004)
Where a chain is given by its changes, count along the chain named.

B1: MS-GPC-8-27-41 Fab (Fab, V domains shown)
VH: QVQLKESGPALVKPTQTLTLTCTFSGFSLSTSGVGVGWIRQPPGKALEWLALIDWDDDKYYSTSLKTRLTISKDTSKNQVVLTMTNMDPVDTATYYCARSPRYRGAFDYWGQGTLVTVSS
VL: DIVLTQPPSVSGAPGQRVTISCSGSESNIGNNYVQWYQQLPGTAPKLLIYDNNQRPSGVPDRFSGSKSGTSASLAITGLQSEDEADYYCQSYDMNVHVFGGGTKLTVLG
B2: MS-GPC-8-17 Fab (Fab, V domains shown)
VH: B1 VH
VL: B1 VL with E26S, N31S, Q35S, M94F, N95S, H97Y
B3: MS-GPC-8-6-2 Fab (Fab, V domains shown)
VH: B1 VH
VL: B1 VL with N31S, Q35H, M94Y, N95D, V96H, H97Y

Key:
[1] = target: HLA-DR on the surface of LG-2 cells (human B-lymphoblastoid cell line) (human); test: cell-based or functional assay
[2] = target: T1, HLA-DR (DRA*0101/DRB1*0401) on the surface of PRIESS cells (human, UniProt P01903 26-254; P01911 30-266); test: cell-based or functional assay
T1 MHC II alpha: not shown
T1 MHC II beta: not shown

Binder	EC50 of cell killing (nM) for bivalent agent; LG2 cells; Fab cross-linked with anti-FLAG M2 [1] [nM]	EC50 of cell killing (nM) for bivalent agent; PRIESS cells; Fab cross-linked with anti-FLAG M2 [2] [nM]
B1	7.2	7.7
B2		16
B3		8
